Results as given in the Human Domainome abundance scans (Beltran et al. 2025).

B1: Segment polarity protein dishevelled homolog DVL-3, residues 2 to 81; numbered along this chain, Q92997 (parent)
chain: GETKIIYHLDGQETPYLVKLPLPAERVTLADFKGVLQRPSYKFFFKSMDDDFGVVKEEISDDNAKLPCFNGRVVSWLVSA

Variants of: B1
Assay: abundance fitness (aPCA) (normalised: wild type 0, dead -1); higher = more abundant; growth selection in yeast, the domain comes from the species named
Details: Homo sapiens

Abundance fitness, by site and new letter:
L20: P -0.954; E -0.615; F -0.336; V 0.104; Q -1.09; D -0.68; S -0.664; K -0.666; C -0.632; I 0.101; M -0.679; W -0.472; G -0.625; R -0.779; A -1.06; T -0.836
H8: E -1.06; I -0.681; M -0.455; G -0.668; L -0.542; P -0.225; C -1.19; S -0.617; Y 0.19; F 0.23; W 0.027; T -0.503; R -0.326; A -0.772; V -0.494; Q -0.747; K -0.548; N -0.661
Y7: D -0.947; T -0.731; A -0.882; G -0.833; N -0.636; V -0.37; Q -0.975; C -0.663; H -0.78; R -0.811; W -0.869; E -0.608; S -0.884; L -0.735; K -0.749; P -0.806; I -0.74
G11: Y -0.391; D 0.192; N 0.095; S -0.262; P -0.668; K -0.384; W -0.466; L -0.389; Q -0.322; F -0.586; I -1.06; A -0.356; C -0.333; E -0.112; M -0.617; T -0.418; H -0.471; V -0.919; R -0.435
L17: I 0.447; N -0.482; H 0.335; K -0.367; G -0.434; E 0.75; R -0.337; C 0.347; F 0.328; Q 0.271; W 0.022; P -0.907; Y 0.258; D -0.677; S 0.245; A -0.098; M 0.428; T 0.479
P21: G -0.56; N 0.003; L -0.758; F -0.588; A -0.169; C -0.391; D -0.253; Q -0.269; S -0.313; H -0.196; I -0.561; Y -0.693; E -0.293; W -0.712; K -0.449; M -0.426; T -0.592; R -0.575; V -0.789
T14: M -0.265; Q 0.114; H 0.281; L -0.328; D 0.038; S -0.104; A -0.123; R 0.096; V -0.128; W -0.529; P -0.129; K 0.286; G -0.296; I 0.024; F -0.092; C -0.112; Y -0.955; N -0.049; E 0.215
E13: L -0.42; M -0.047; G -0.348; K 0.064; Y -0.526; I -0.184; C -0.251; F -0.549; Q -0.034; D -0.129; H -0.473; R -0.092; S -0.107; W -0.351; A -0.183; V -0.426; N -0.222; P -0.011; T -0.129
L22: E -0.617; A -0.604; D -0.574; C -0.231
I5: K -1.16; G -0.643; D -0.973; W -0.625; V -0.265; F -0.815; E -0.767; P -0.543; S -0.765; C -0.535; H -0.514; T -0.437; L -0.698; N -0.916; R -0.784; Y -0.969; A -0.837; M -0.803
E2: Q -0.194; V -0.129; M -0.281; L -0.341; T -0.079; P -0.491; W -0.121; N 0.052; Y -0.049; R -0.579; S -0.082
Q12: I 0.083; N 0.269; Y -0.019; H 0.134; L -0.305; V -0.012; M 0.063; R -0.053; F -0.227; E 0.219; D 0.386; K -0.088; S 0.263; C 0.126; A -0.129; P -0.638; T -0.106; G 0.129; W -0.612
L9: Q -0.825; F -0.575; P -0.695; C -0.528; I 0.163; N -0.888; R -0.704; S -0.366; D -0.535; K -0.574; T -0.767; Y -0.581; H -1.14; G -0.622; A -0.518; M -0.283; E -0.546; V 0.167
T3: F -0.452; I -0.962; H -0.831; S -0.633; M -0.683; D -0.448; R -0.665; C -0.59; N -0.822; K -0.635; A -0.684; P -0.509; L -0.727; E -0.638; Q -1.05; G -0.853
V18: N -0.329; G -0.612; Q -0.872; S -0.906; W -0.643; F -0.707; T -0.33; L -0.054; A -0.264; R -0.717; I -0.025; D -0.694; K -0.601; C -0.558; E -0.68; M -0.247; H -0.298; Y -0.589
Y16: F -0.082; Q 0.16; E -0.167; K 0.074; P -0.869; A -0.593; S -0.213; M 0.096; D -0.708; C 0.041; T -0.15; L 0.025; H 0.23; V -0.115; W -0.572; I 0.216; N -0.157
D10: K -0.791; N -0.507; H -0.568; R -0.696; I -0.831; L -0.848; T -0.471; E -0.016; M -0.822; P 0.002; V -0.726; C -0.709; A -0.513; W -0.866; F -0.677; S -0.68; G -0.709
I6: G -0.625; F -0.015; L -0.152; C -0.467; P -0.816; D -0.585; K -0.892; H -0.076; R -0.728; Q -0.28; Y 0.248; N -0.451; E 0.153; M -0.502; T -0.132; V -0.135; S -0.431; A -0.578
P15: S -0.078; F -0.891; C -0.33; H -0.348; L -0.654; N -0.529; G -0.47; I -0.863; R -0.406; Y -0.743; E 0.136; A -0.142; T -0.058; D -0.464; Q -0.064
K19: P -0.797; V 0.383; Q -0.297; H -0.07; S 0.157; I 0.314; C -0.024; A -0.143; F -0.215; Y -0.154; N -0.133; E -0.034; R -0.132; T 0.271; G -0.635; M 0.058; W -0.357; D -0.547
